The text below walks through data of article PMC11413682, “SARS-CoV-2 ORF10 hijacking ubiquitination machinery reveals potential unique drug targeting sites” (Acta Pharmaceutica Sinica. B, 2024).

Usually Kd stands for a measure of binding affinity in units of concentration. A higher Kd goes with a looser complex.

The target in the test is T1, CUL2^ZYG11B (residues 490–728) (human, UniProt Q9C0D3 490-728).
T1 construct: human ZYG11B, substrate receptor of the cullin-2 RING E3 ligase; ARM3–ARM8 repeats, residues 490–728; also called CUL2^ZYG11B(490–728); ARM3–ARM8; source: E. coli, purified (Ni-NTA, TEV cleavage, HiTrap Q HP, gel filtration); not shown: His6, N-terminal, cleaved; SUMO, N-terminal, cleaved
T1 sequence (Q9C0D3 490-728): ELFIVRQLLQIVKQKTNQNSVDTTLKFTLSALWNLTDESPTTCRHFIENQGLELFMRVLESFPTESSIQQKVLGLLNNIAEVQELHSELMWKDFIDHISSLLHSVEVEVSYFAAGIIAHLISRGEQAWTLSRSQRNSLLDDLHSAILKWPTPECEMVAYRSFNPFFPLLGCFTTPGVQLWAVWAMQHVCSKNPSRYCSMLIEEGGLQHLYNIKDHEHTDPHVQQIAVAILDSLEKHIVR
The test can be described thus: ITC; MicroCal iTC200; peptides (0.5–1 mmol/L) in the syringe, CUL2^ZYG11B(490–728) (0.03 mmol/L) in the cell; 18 injections of 2 μL; repeated 3 times. Conditions: both partners purified.

B1: SARS-CoV-2 ORF10 N5 peptide (peptide)
peptide: GYINV
notes: first five residues of the SARS-CoV-2 ORF10 N-terminal extension; also called five-residue peptide; source: synthetic peptide
Regarding B1, binding was characterised by a dissociation constant (Kd) of 2940 nM.
